The source of these data is patent CN114773460A.

The assay has as its target 轮状病毒重组蛋白VP8 (recombinant rotavirus VP8, part of the spike protein VP4) (轮状病毒 (rotavirus; strain not stated)). The experiment in a line: ELISA, antigen coated at 10 μg/mL, Rot1 in 2-fold dilutions from 10 μg/mL (16 points), anti-His detection, OD450.

B1: 纳米抗体Rot1 (nanobody Rot1, fusion protein with C-terminal histidine tag and human influenza hemaggluti (VHH)
VHH: QVQLQESGGGLVQAGGSLRLSCTASGYRFSNLAVGWFRQAPGQEREAVAVIFVGGITYYADSVKGRFTISRDNAKNTVTLQMNNLKPEDTAIYYCAAYVHMYCASQTITRYDYWGQGTQVTVSS
In general, EC50 refers to the concentration that produces a half-maximal response. For B1, the EC50 came out at 0.195 µg/mL.
